Results from patent US12540945B2, “Probe and method for identifying host cell protein impurities” (Regeneron Pharmaceuticals, Inc., priority 2021, dated 2026).

Test: Hydrolysis of polysorbate 80 by spiked LAL, oleic acid release by LC-MS
Assay type: biochemical
Details: 5 ppm LAL, 0.1% PS80, pH 5.5, after 2 days of incubation

B1: LAL: lysosomal acid lipase; recombinant CHO LAL generated in-house, spiked into PS80 samples (protein, UniProt P38571 77-399, looked up)
Lysosomal acid …: GPKPVVFLQHGLLADSSNWVTNLANSSLGFILADAGFDVWMGNSRGNTWSRKHKTLSVSQDEFWAFSYDEMAKYDLPASINFILNKTGQEQVYYVGHSQGTTIGFIAFSQIPELAKRIKMFFALGPVASVAFCTSPMAKLGRLPDHLIKDLFGDKEFLPQSAFLKWLGTHVCTHVILKELCGNLCFLLCGFNERNLNMSRVDVYTTHSPAGTSVQNMLHWSQAVKFQKFQAFDWGSSAKNYFHYNQSYPPTYNVKDMLVPTAVWSGGHDWLADVYDVNILLTQITNLVFHESIPEWEHLDFIWGLDAPWRLYNKIINLMRKYQ
modifications: recombinant, CHO-expressed
notes: lysosomal acid lipase; recombinant CHO LAL generated in-house, spiked into PS80 samples
For B1, the “oleic acid released (hydrolysis of PS80)” value was 3 µg/mL.
